We go through 5 molecules from patent US20200323888A1, “INHIBITORS” (VESTLANDETS INNOVASJONSSELSKAP AS, priority 2017, published 2020).

Primed or numbered codes have the meaning given here. Ends that are not written are not given here. Ac′ = acetamide linker; CoA = coenzyme A

Assay [1] deals with T1, NatA (Homo sapiens, UniProt P41227).
T1 construct: endogenous in cells
T1 sequence (P41227 1-235): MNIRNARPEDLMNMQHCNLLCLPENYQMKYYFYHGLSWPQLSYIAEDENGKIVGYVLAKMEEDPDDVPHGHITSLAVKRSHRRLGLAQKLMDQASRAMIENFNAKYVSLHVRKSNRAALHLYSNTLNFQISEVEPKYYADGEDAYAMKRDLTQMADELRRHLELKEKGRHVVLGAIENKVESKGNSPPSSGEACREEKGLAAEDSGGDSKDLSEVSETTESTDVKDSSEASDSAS
T1 sequence (Q9BXJ9 1-866 partner): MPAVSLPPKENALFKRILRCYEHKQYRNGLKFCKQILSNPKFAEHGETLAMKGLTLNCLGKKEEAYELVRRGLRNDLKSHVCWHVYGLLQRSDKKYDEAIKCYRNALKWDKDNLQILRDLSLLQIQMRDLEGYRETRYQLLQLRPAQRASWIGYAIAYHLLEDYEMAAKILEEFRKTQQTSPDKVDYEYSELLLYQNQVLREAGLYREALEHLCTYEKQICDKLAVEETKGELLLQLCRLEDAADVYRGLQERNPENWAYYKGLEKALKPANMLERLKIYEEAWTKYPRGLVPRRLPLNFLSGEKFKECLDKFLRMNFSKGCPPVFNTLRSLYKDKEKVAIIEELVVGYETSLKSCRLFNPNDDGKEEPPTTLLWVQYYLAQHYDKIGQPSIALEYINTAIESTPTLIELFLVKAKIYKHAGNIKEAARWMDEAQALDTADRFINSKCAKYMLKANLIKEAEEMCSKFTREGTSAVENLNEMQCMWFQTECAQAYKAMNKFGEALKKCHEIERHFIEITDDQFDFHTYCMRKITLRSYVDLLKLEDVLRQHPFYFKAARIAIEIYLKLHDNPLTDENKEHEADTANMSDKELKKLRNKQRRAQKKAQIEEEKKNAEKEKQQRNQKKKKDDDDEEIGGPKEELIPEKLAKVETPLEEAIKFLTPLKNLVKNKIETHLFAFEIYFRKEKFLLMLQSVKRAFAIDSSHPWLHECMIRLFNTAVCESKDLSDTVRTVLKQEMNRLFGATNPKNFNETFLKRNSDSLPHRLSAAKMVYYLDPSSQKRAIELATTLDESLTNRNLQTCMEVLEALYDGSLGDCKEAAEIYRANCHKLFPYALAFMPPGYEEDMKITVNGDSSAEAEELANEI
As to conditions: NatA complex; Foyn et al. 2013; cited from earlier work.

Assay [2] deals with T2, Naa50 (Homo sapiens, UniProt Q9GZZ1).
T2 sequence (Q9GZZ1 1-169): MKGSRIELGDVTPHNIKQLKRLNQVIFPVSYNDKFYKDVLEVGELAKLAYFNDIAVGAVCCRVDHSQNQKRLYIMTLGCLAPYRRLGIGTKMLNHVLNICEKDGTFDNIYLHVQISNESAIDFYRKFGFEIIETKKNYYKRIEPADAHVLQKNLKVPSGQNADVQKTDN
Conditions: NatE/hNaa50; Foyn et al. 2013; cited from earlier work.

Assay [3] addresses T3, Naa80 (Homo sapiens, UniProt Q93015).
T3 construct: The PCR product containing the CDS was inserted into the TOPO TA vector; made in house; host or cells: E. coli BL21 Star (DE3)
T3 sequence (Q93015 1-308 isoform Q93015-2): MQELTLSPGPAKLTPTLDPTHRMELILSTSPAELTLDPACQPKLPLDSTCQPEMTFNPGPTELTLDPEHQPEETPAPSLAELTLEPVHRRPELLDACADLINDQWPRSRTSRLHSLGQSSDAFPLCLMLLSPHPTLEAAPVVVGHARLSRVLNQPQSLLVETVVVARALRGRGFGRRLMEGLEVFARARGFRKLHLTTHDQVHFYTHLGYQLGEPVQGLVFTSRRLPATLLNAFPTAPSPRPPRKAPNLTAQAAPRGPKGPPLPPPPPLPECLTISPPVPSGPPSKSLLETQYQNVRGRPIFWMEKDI
Kind of assay: Nt-acetylation inhibitor assay for Naa80. Conditions: Naa80. The format is biochemical. As to the method: FIG. 10: (A) IC50 values for inhibitors measured in an Nt-acetylation inhibitor assay for Naa80. (B) Ki-values for CoA-Ac-DDDI-NH2 (SEQ ID NO: 6) for different human NATs measured in an Nt-acetylation inhibitor assay. All reactions were performed at least three times and in triplicate; errors bars represent standard deviation of each measurement.
The IC50 values for these compounds were tested as described in Foyn H, et al. (2013) “Design, Synthesis, and Kinetic Characterization of Protein N-Terminal Acetyltransferase Inhibitors”. ACS Chem Biol 8:1121-1127; and Foyn H, et al. (2017) “DTNB-Based quantification of in vitro enzymatic N-terminal acetyltransferase activity”, Methods Mol. Biol. 1574:9-15. Briefly, a colorimetric acetylation assay, 5,5′-dithiobis-(2-nitrobenzoic acid) (DTNB) assay was used to measure the catalytic activity of NATs after incubation with NAT inhibitors. In the DTNB assay, thiols present in the enzymatic product, CoA, cleaves DTNB and produces 2-nitro-5-thiobenzoate (NTB-), which absorbs light with a wavelength of 412 nm. NTB- forms in a 1:1 molar ratio to the thiol groups present in the sample. Therefore, NTB- was quantified by measuring the absorbance at 412 nm and indirectly measures peptide Nt-acetylation. […] After 30 min-60 min incubation at 37° C., the enzyme activity was quenched with quenching buffer (3.2 M guanidinium-HCl, 100 mM sodium phosphate dibasic pH 6.8). Triplicates were run for all positive samples, while negative controls were duplicated. As a negative control, reactions without enzyme were incubated at 37° C. before the reaction was quenched and added enzyme. In order to measure CoA production, 2 mM DTNB (dissolved in 100 mM sodium phosphate dibasic pH 6.8 and 10 mM EDTA) was added to the quenched reaction and the absorbance at 412 nm was measured with a spectrophotometer (Epoc). Background absorbance (determined in negative controls) was subtracted from the absorbance determined in each individual reaction. Thiophenolate production was quantified assuming ε=13.7×103 M−1 cm−1. For NatA and NatB enzyme complex inhibition, immunoprecipitation was performed using Naa15 ab (custom made, Arnesen T, Anderson D, Baldersheim C, Lanotte M, Varhaug J E, Lillehaug J R. (2005) Identification and characterization of the human ARD1-NATH protein acetyltransferase complex. Biochemical J 386(Pt 3):433-43.) or Naa20 ab (Nat5, abnova) respectively and protein A/G magnetic agarose beads (Millipore). A similar Nt-acetylation reaction was performed as previously described and the enzymatic activity was quenched with a final concentration of 1% TFA and analyzed by HPLC (Evjenth R, Van Damme P, Gevaert K, Arnesen T (2013) HPLC-based Quantification of in vitro N-terminal Acetylation. Methods Mol Biol 981:95-102.).
We then pursued Naa80 bisubstrate analogue inhibitors based on the results of the substrate screening and the sequences of the cellular substrates processed β- and γ-actin. We synthesized bisubstrate conjugates of Coenzyme A coupled to the tetrapeptides MDEL-NH2 (SEQ ID NO: 8), DDDI-NH2 (SEQ ID NO: 6), EEEI-NH2 (SEQ
ID NO: 7), and MLGT-NH2 (SEQ ID NO: 52) via an acetamide (Ac) linker.
The following additional Naa80 bisubstrate analogue inhibitors were produced and tested as described above: […]

Assay [4] has as its target T4, Naa10 (Homo sapiens, UniProt P41227).
T4 sequence (P41227 1-235): T1 sequence (P41227 1-235)
As to conditions: hNaa10, catalytic subunit of NatA; Foyn et al. 2013; cited from earlier work.

In assay [5] the target is T5, NatA complex (Naa15-Naa10) (human, UniProt P41227 1-235; Q9BXJ9 1-866).
T5 sequence (looked up) 1: T1 sequence (P41227 1-235)
T5 sequence (looked up) 2: T1 sequence (Q9BXJ9 1-866 partner)
Kind of assay: comparison of Ki values from Nt-acetylation inhibition assays.

In assay [6] the target is T5, NatA complex (Naa15-Naa10). Briefly: cell-based or functional assay.
For assay [7], the target named is T5, NatA complex (Naa15-Naa10). Briefly: Ki calculated by Cheng-Prusoff from IC50 of Nt-acetylation inhibition assay.
For assay [8], the target named is NatB (Homo sapiens, UniProt P61599). The description is as above.
In assay [9] the target is T6, Naa10 (monomeric) (human, UniProt P41227 1-235, limits assumed).
T6 construct: also called hNaa10; Ard1
T6 sequence (looked up): T1 sequence (P41227 1-235)
The assay is described as above.

Assay [10] deals with Naa50 (human) (UniProt Q9GZZ1). Described as above.
Assay [11] deals with Naa60 (Homo sapiens, UniProt Q9H7X0). The description is as above.
For assay [12], the target named is Naa40 (Homo sapiens, UniProt Q86UY6). The assay is described as above.
Assay [13] addresses Naa30 (UniProt Q147X3). Described as above.
For assay [14], the target named is T7, MBP-HishNAA80 fusion protein (MBP-Naa80) (human, UniProt Q93015-2 1-308).
T7 sequence (looked up): T3 sequence (Q93015 1-308 isoform Q93015-2)
Briefly: cell-based or functional assay.

Assay [15] addresses T7, MBP-HishNAA80 fusion protein (MBP-Naa80). Briefly: cell-based or functional assay. The source holds these as a separate data set.
Assay [16] has as its target T6, Naa10 (monomeric). Briefly: Ki from Nt-acetylation inhibitor assay, panel of human NATs.
In assay [17] the target is T7, MBP-HishNAA80 fusion protein (MBP-Naa80). Described as above.

Chain of NatB (P61599 whole entry): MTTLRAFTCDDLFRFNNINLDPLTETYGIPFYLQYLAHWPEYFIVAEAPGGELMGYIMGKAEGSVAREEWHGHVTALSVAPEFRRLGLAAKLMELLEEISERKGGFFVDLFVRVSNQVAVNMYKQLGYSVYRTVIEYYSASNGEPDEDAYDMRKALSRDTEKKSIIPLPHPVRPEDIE
Chain of Naa30 (Q147X3 whole entry, the tested form may be a part): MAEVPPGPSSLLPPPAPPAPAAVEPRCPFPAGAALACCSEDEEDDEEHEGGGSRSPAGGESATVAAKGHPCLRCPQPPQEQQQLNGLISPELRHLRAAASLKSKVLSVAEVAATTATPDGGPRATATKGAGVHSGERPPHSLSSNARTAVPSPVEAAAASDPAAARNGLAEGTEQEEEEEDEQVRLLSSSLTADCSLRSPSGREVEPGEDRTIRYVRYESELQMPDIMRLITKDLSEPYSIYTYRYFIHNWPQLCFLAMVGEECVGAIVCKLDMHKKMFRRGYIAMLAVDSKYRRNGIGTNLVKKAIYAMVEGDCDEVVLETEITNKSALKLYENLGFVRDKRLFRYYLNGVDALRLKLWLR

As usually defined, the IC50 is the concentration at which inhibition is half-maximal. For `CC(C)(COP(=O)(O)OP(=O)(O)OCC1OC(n2cnc3c(N)ncnc32)C(O)C1OP(=O)(O)O)C(O)C(=O)NCCC(=O)NCCSCC(=O)N[C@@H](CO)C(=O)N[C@@H](CCC(=O)O)C(=O)N[C@@H](CO)C(=O)N[C@@H](CO)C(N)=O` (stereo partly drawn) [CoA-Ac-SESS], the concentration for half-maximal inhibition (IC50) in [1] was 15.1 µM.
Consider “CoA-Ac-MLG7: Previously disclosed bisubstrate analogue inhibitor of NatE/hNaa50 (SEQ ID NO: 49), Foyn 2013 ({CoA-Ac′}-MLGPEGG)”, for which the 50% inhibitory concentration (IC50) in assay [2] was 1.29 µM.
Turning to `CC[C@H](C)[C@H](NC(=O)[C@H](CCC(=O)O)NC(=O)[C@H](CCC(=O)O)NC(=O)[C@H](CCC(=O)O)NC(=O)CSCCNC(=O)CCNC(=O)C(O)C(C)(C)COP(=O)(O)OP(=O)(O)OCC1OC(n2cnc3c(N)ncnc32)C(O)C1OP(=O)(O)O)C(N)=O` (stereo partly drawn) [CoA-Ac-EEEI-NH2], the IC50 is 1.16 µM in assay [3] and 10.1 µM in [4].
As a reminder, the Ki is a measure of affinity in units of concentration, obtained from inhibition or displacement. In assay [5], CoA-Ac-SSNleP-NH2 (peptide) registered a fold more potent towards NatA than all the other NATs tested of more than 100 fold. The same molecule showed an IC50 (µM), Nt-acetylation inhibition in assay [6] of 1.46 µM. The inhibitory constant (Ki) in [7] is 0.143 µM; in assay [8], 41.6 µM; in [9], 98.9 µM; in [10] it was 17.7 µM; in assay [11], 3.1 µM; in assay [12], 41.9 µM. For the same molecule, the Ki in assay [13] is 132 µM.
{CoA-Ac}-DDDI-NH2 [CoA-Ac-DDDI-NH2]: the “IC50 (µM), Nt-acetylation inhibition” value in assay [14] was 0.38 µM. Also, in assay [15], the “fold more potent than CoA-Ac-EEEI-NH2 (IC50)” value was 3 fold and the “fold more potent than CoA-Ac-MDEL-NH2 (IC50)” value turned out to be 3.3 fold. In addition, the “fold reduced potency for Naa10 compared to Naa80” value in assay [16] worked out at 88 fold. This molecule also yielded a Ki in assay [17] of 0.043 µM.
